What was measured:
[1] = molecular target: T1, human prostate specific membrane antigen (PSMA) on LNCaP prostate cancer cells (human, UniProt Q04609 1-750); assay: cell-based or functional assay
[2] = molecular target: T2, PSMA immunopurified from LNCaP cells (human, UniProt Q04609 1-750); assay: ELISA on PSMA immunopurified from LNCaP cells, HRP goat anti-human IgG (kappa chain-specific) detection
T2 construct: also called purified PSMA; immunopurified PSMA
Method: A comparison of anti-PSMA antibodies on binding to immunopurified PSMA was performed by standard ELISA to examine the specificity of binding for PSMA.
PSMA was immunopurified from LNCaP cells and tested for binding against the anti-PSMA human monoclonal antibodies 1C3, 2A10, 2F5, and 2C6. Standard ELISA procedures were performed. The anti-PSMA human monoclonal antibodies were added at a concentration of 5 μg/ml and titrated down at 1:2 serial dilutions. Goat-anti-human IgG (kappa chain-specific) polyclonal antibody conjugated with horseradish peroxidase (HRP) was used as secondary antibody. The human anti-PSMA monoclonal antibody 7F12 was used as a positive control and a blank was used as a negative control. The anti-PSMA human monoclonal antibodies 2A10 and 2F5 bound with high specificity to PSMA.

[3] = molecular target: T1, human prostate specific membrane …; assay: flow cytometry on LNCaP cells, FITC-labeled anti-human IgG detection
Method: The human PSMA-expressing prostate cancer cell line LNCaP was used to determine the specificity of anti-PSMA human monoclonal antibodies by flow cytometry. Binding of the 2F5, 2A10, and 2C6 anti-PSMA human monoclonal antibodies was assessed by incubating the LNCaP cells with the anti-PSMA human monoclonal antibodies at different concentrations. The cells were washed and binding was detected with a FITC-labeled anti-human IgG Ab. Flow cytometric analyses were performed using a FACScan flow cytometry (Becton Dickinson, San Jose, Calif.). The human anti-PSMA monoclonal antibody 7F12 (as described in PCT Publication WO 03/064606) was used as a positive control and a non-PSMA specific isotype control antibody was used as a negative control. The results are depicted in FIG. 9. The anti-PSMA human monoclonal antibodies 2F5, 2A10, and 2C6 bound specifically to the PSMA-expressing LNCaP cells.

[4] = molecular target: T1, human prostate specific membrane …; assay: Scatchard analysis, 125I-labelled antibody on LNCaP cells
Method: The binding affinity of the 2A10 antibody for the PSMA-expressing prostate cancer LNCaP cell line was tested using a Scatchard analysis.
LNCaP cells were obtained from ATCC(CRL-1740) and grown in RPMI media containing 10% fetal bovine serum (FBS). The cells were trypsinized and washed once in Tris based binding buffer (24 mM Tris pH 7.2, 137 mM NaCl, 2.7 mM KCl, 2mM Glucose, 1 mM CaCl₂, 1 mM MgCl₂, 0.1% BSA) and the cells were adjusted to 2×10⁶ cells/ml in binding buffer. Millipore plates (MAFB NOB) were coated with 1% nonfat dry milk in water and stored a 4° C. overnight. The plates were washed three times with 0.2 ml of binding buffer. Fifty microliters of buffer alone was added to the maximum binding wells (total binding). Twenty-five microliters of buffer alone was added to the control wells (non-specific binding). Varying concentration of ¹²⁵I-anti-PSMA antibody was added to all wells in a volume of 25 μl . Varying concentrations of unlabeled antibody at 100 fold excess was added in a volume of 25 μl to control wells and 25 μl of LNCaP cells (2×10⁶ cells/ml) in binding buffer were added to all wells. The plates were incubated for 2 hours at 200 RPM on a shaker at 4° C. […] The filters were removed and counted in a gamma counter. […]

[5] = molecular target: T1, human prostate specific membrane …; assay: radioligand competition on LNCaP cells: unlabeled antibody varied against a fixed concentration of 125I-2A10
Method: (§1) LNCaP cells were obtained from ATCC(CRL-1740) and grown in RPMI media containing 10% fetal bovine serum (FBS). The cells were trypsinized and washed once in Tris based binding buffer (24 mM Tris pH 7.2, 137 mM NaCl, 2.7 mM KCl, 2 mM Glucose, 1 mM CaCl₂, IMM MgCl₂, 0.1% BSA) and the cells were adjusted to 2×10⁶ cells/ml in binding buffer. Millipore plates (MAFB NOB) were coated with 1% nonfat dry milk in water and stored a 4° C. overnight. The plates were washed three times with 0.2 ml of binding buffer. Twenty-five microliters of buffer alone was added to the wells (non-specific binding). A fixed concentration of ¹²⁵I-anti-PSMA antibody was added to all wells in a volume of 25 μl. Varying concentrations of unlabeled antibody was added to wells in a volume of 25 μl and 25 μl of LNCaP cells (2×10⁶ cells/ml) in binding buffer were added to all wells. The plates were incubated for 2 hours at 200 RPM on a shaker at 4° C. At the completion of the incubation the Millipore plates were washed three times with 0.2 ml of cold wash buffer (24 mM Tris pH 7.2, 500mM NaCl, 2 mM KCl, 2 mM Glucose, 1 mM CaCl₂, 1 mM MgCl₂, 0.1% BSA). The filters were removed and counted in a gamma counter. Evaluation of equilibrium binding was performed using single site binding parameters with the Prism software (San Diego, Calif.). An isotype control antibody was used as a negative control. […]

[6] = molecular target: T1, human prostate specific membrane …; assay: radioligand competition on LNCaP cells: unlabeled antibody varied against a fixed concentration of 125I-7F12
Method: as §1

T1 sequence (Q04609 whole entry): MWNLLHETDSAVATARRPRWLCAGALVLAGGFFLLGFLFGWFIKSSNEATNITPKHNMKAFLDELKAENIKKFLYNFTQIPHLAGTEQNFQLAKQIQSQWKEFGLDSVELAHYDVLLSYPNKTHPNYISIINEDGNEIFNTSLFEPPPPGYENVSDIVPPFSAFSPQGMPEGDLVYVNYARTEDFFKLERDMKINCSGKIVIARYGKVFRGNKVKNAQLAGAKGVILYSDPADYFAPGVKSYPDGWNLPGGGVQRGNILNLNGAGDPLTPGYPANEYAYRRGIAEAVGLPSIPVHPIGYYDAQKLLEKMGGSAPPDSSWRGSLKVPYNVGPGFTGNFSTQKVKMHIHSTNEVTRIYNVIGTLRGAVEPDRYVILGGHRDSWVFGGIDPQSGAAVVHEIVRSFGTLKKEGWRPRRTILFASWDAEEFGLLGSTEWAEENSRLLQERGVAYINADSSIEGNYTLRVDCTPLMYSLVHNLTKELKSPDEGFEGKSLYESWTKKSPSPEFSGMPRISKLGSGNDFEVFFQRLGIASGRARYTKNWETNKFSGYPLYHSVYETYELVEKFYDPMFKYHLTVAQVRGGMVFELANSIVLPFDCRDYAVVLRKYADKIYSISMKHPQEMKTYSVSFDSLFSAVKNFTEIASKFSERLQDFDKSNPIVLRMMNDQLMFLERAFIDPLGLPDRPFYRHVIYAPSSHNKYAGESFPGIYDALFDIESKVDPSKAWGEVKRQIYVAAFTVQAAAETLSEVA
T2 sequence (Q04609 whole entry): as above

B1: anti-PSMA HuMAb antibody 2A10 conjugated to a toxin (antibody, V domains shown)
VH: EVQLVQSGAEVKKPGESLKISCKGSGYSFTSNWIGWVRQMPGKGLEWMGIIYPGDSDTRYSPSFQGQVTISADKSISTAYLQWSSLKASDTAMYYCARQTGFLWSSDLWGRGTLVTVSS
VL: AIQLTQSPSSLSASVGDRVTITCRASQDISSALAWYQQKPGKAPKLLIYDASSLESGVPSRFSGYGSGTDFTLTINSLQPEDFATYYCQQFNSYPLTFGGGTKVEIK
In the case of B1, the “EC50, 3H-thymidine incorporation cell proliferation assay, continuous wash” value [1] is reported as 0.0643 nM and the “EC50, 3H-thymidine incorporation cell proliferation assay, three-hour wash” value [1] is reported as 0.157 nM.

B2: anti-PSMA human monoclonal antibody 2F5 (antibody, V domains shown)
VH: EVQLVQSGAEVKKPGESLKISCKGSGYSFTSNWIGWVRQMPGKGLEWMGIIYPGDSDTRYSPSFQGQVTISADKSISTAYLQWNSLKASDTAMYYCARQTGFLWSFDLWGRGTLVTVSS
VL: AIQLTQSPSSLSASVGDRVTITCRASQDISSALAWYQQKPGKAPKLLIYDASSLESGVPSRFSGSGSGTDFTLTISSLQPEDFATYYCQQFNSYPLTFGGGTKVEIKI
B2 was tested, and the “EC50 (read off the curve)” value [2] was roughly 0.04 µg/mL and the “EC50 (read off the curve)” value [3] was roughly 0.8 µg/mL.

B3: anti-PSMA human monoclonal antibody 2A10 (antibody, V domains shown)
VH: EVQLVQSGAEVKKPGESLKISCKGSGYSFTSNWIGWVRQMPGKGLEWMGIIYPGDSDTRYSPSFQGQVTISADKSISTAYLQWSSLKASDTAMYYCARQTGFLWSSDLWGRGTLVTVSS
VL: AIQLTQSPSSLSASVGDRVTITCRASQDISSALAWYQQKPGKAPKLLIYDASSLESGVPSRFSGYGSGTDFTLTINSLQPEDFATYYCQQFNSYPLTFGGGTKVEIK
notes: also called anti-PSMA HuMAb 2A10
With B3 the “EC50 (read off the curve)” value [2] was roughly 0.04 µg/mL, the “EC50 (read off the curve)” value [3] was roughly 0.7 µg/mL and the Kd [4] was roughly 0.8 nM. The “IC50 (read off the curve)” value [5] was 1 to 2 nM and the “IC50 (read off the curve)” value [6] was roughly 1 nM.

B4: anti-PSMA human monoclonal antibody 1C3 (antibody, V domains shown)
VH: QVQLVESGGGVVQPGRSLRLSCAASGFTFSSYAMHWVRQAPGKGLEWVAVISYDGNNKYYADSVKGRFTISRDNSKNTLYLQMNSLRAEDTAVYYCARAVPWGSRYYYYGMDVWGQGTTVTVSS
VL: AIQLTQSPSSLSASVGDRVTITCRASQGISSALAWYQQKSGKAPKLLIFDASSLESGVPSRFSGSGSGTDFTLTISSLQPEDFATYYCQQFNSYPLTFGGGTKVEIK
B4: binds [2].

B5: anti-PSMA human monoclonal antibody 2C6 (antibody, V domains shown)
VH: EVQLVQSGSEVKKPGESLKISCKGSGYSFTNYWIGWVRQMPGKGLEWMGIIYPGDSDTRYSPSFQGQVTISADKSISTAYLQWSSLKASDTAMYYCASPGYTSSWTSFDYWGQGTLVTVSS
VL: EIVLTQSPATLSLSPGERATLSCRASQSVSSYLAWYQQKPGQAPRLLIYDASNRATGIPARFSGSGSGTDFTLTISSLEPEDFAVYYCQQRSNWPLFTFGPGTKVDIK
B5: binds [2]; binds [3].

Reference: US20090297438A1 (published 2009)
